Test results: publication PMC2690590, “Functional recombinant MHC class II molecules and high-throughput peptide-binding assays” (Immunome Research, 2009)

What was measured:
[1] = target: T1, DR1 (DRA*0101/DRB1*0101) (Homo sapiens, UniProt P01903+P01911, A100R/D57E/F55L/F60I/F76Y/I96L/L162R/M171V/P40L/Q125E/R42F/V115G/Y59C); assay: Competitive peptide-HLA-DR1 binding assay, radioactive spun column; settings: competition with 125I labelled (Y)HA306–318, spun column assay
[2] = target: T1, DR1 (DRA*0101/DRB1*0101); assay: Scintillation proximity assay (SPA), competitive, DR1; type: binding; settings: 30 nM DR1 α and β chain; 2 nM 125I labeled YHA306-318; refolding buffer pH 8; 24 h 18°C; streptavidin SPA beads

B1: Invariant Chain: a recombinant version of the extracellular part of human invariant chain (positions 73–208) (protein)
chain: QQQGRLDKLTVTSQNLQLENLRMKLPKPPKPVSKMRMATPLLMQALPMGALPQGPMQNATKYGNMTEDHVMHLLQNADPLKVYPPLKGSFPENLRHLKNTMETIDWKVFESWMHHWLLFEMSRHSLEQKPTDAPPK
- binder to DR1 (in words) [1]: good binders
- binder to DR1 (in words), SPA [2]: good binders
